Measured values as given in publication PMC517823, “Mechanism of Association and Reciprocal Activation of Two GTPases” (PLoS Biology, 2004).

B1: wild-type FtsY(47-497) (domain or fragment, Escherichia coli, UniProt P10121 47-497, looked up)
chain: ASEQAVEEQPQAHTEAEAETFAADVVEVTEQVAESEKAQPEAEVVAQPEPVVEETPEPVAIEREELPLPEDVNAEAVSPEEWQAEAETVEIVEAAEEEAAKEEITDEELETALAAEAAEEAVMVVPPAEEEQPVEEIAQEQEKPTKEGFFARLKRSLLKTKENLGSGFISLFRGKKIDDDLFEELEEQLLIADVGVETTRKIITNLTEGASRKQLRDAEALYGLLKEEMGEILAKVDEPLNVEGKAPFVILMVGVNGVGKTTTIGKLARQFEQQGKSVMLAAGDTFRAAAVEQLQVWGQRNNIPVIAQHTGADSASVIFDAIQAAKARNIDVLIADTAGRLQNKSHLMEELKKIVRVMKKLDVEAPHEVMLTIDASTGQNAVSQAKLFHEAVGLTGITLTKLDGTAKGGVIFSVADQFGIPIRYIGVGERIEDLRPFKADDFIEALFARED
notes: FtsY, SRP receptor, Escherichia coli, residues 47-497; also called SRP receptor; SR; source: expressed and purified as in Powers and Walter 1997; Peluso et al. 2001
B2: FtsY A335(140)W (domain or fragment, Escherichia coli, UniProt P10121 47-497, looked up)
chain: ASEQAVEEQPQAHTEAEAETFAADVVEVTEQVAESEKAQPEAEVVAQPEPVVEETPEPVAIEREELPLPEDVNAEAVSPEEWQAEAETVEIVEAAEEEAAKEEITDEELETALAAEAAEEAVMVVPPAEEEQPVEEIAQEQEKPTKEGFFARLKRSLLKTKENLGSGFISLFRGKKIDDDLFEELEEQLLIADVGVETTRKIITNLTEGASRKQLRDAEALYGLLKEEMGEILAKVDEPLNVEGKAPFVILMVGVNGVGKTTTIGKLARQFEQQGKSVMLAAGDTFRAWAVEQLQVWGQRNNIPVIAQHTGADSASVIFDAIQAAKARNIDVLIADTAGRLQNKSHLMEELKKIVRVMKKLDVEAPHEVMLTIDASTGQNAVSQAKLFHEAVGLTGITLTKLDGTAKGGVIFSVADQFGIPIRYIGVGERIEDLRPFKADDFIEALFARED
notes: FtsY, Escherichia coli, residues 47-497, with A335W; number in parentheses is the T. aquaticus number; also called mutant FtsY A335(140)W; Class II mutant; source: expressed and purified as wild-type FtsY (Powers and Walter 1997; Peluso et al. 2001)

Key:
Ffh [1] = biological target: T1, Ffh (UniProt P0AGD7 1-453); assay: other fluorescence titration; tryptophan fluorescence of FtsY, time course at 335 nm; 1 uM mutant or wild-type FtsY, 2 uM SRP, 100 uM GppNHp, complex formation started by addition of Mg2+; settings: both partners purified
T1 construct: Ffh, the GTPase of the bacterial signal recognition particle; The methods of the fluorescence experiment name 'SRP' (2 uM), not Ffh alone; also called SRP GTPase; wild-type Ffh
T1 sequence (looked up): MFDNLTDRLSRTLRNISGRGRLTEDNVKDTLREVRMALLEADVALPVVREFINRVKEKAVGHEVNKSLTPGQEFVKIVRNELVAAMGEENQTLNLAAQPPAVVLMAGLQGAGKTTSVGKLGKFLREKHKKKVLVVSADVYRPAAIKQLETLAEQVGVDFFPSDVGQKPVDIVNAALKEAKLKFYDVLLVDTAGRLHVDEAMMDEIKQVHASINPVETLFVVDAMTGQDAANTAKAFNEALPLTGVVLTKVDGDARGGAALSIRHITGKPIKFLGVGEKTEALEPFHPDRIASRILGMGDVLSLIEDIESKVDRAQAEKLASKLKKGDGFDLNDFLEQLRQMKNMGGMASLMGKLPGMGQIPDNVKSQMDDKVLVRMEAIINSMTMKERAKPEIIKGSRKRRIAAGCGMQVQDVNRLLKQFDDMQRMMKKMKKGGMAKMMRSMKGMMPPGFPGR

Ffh [2] = biological target: T1, Ffh; assay: GTPase inhibition (competition) assay; mutant FtsY varied as inhibitor of the GTPase reaction of Ffh with subsaturating wild-type FtsY; under these conditions Ki equals Kd of the Ffh-FtsY(mt) complex; fit to equation 3; settings: both partners purified

| Binder | koff (Ffh [1]) [s⁻¹] | kon (Ffh [1]) [M⁻¹ s⁻¹] | Ki (Ffh [2]) [nM] |
| --- | --- | --- | --- |
| B1 | 0.0036 | 63600 |  |
| B2 | 0.0042 | 63400 | 16 |
